Laboratory results as given in patent publication US20010029293A1.

What follows are binders tested against CD18-independent counterreceptor for ICAM-R on Jurkat cells (assay: cell adhesion to coated shICAM-R, peptide 1-2 mg/ml).

Binder | % Inhibition CD18-Independent Binding (Jurkat) [%]
EKIALET [ICAM-R peptide 32-38] | 10
NGSQI [ICAM-R peptide 72-76 (NGSQI)] | 17
GDQRL [ICAM-1 peptide 228-232 (GDQRL)] | 22
DGQST [ICAM-1 peptide 70-74 (DGQST)] | 9

Next, values leading:

% Inhibition CD18-Independent Binding (Jurkat) [%] | Binder
11 | GERREA [ICAM-R peptide 271-276]
36 | GDQML [ICAM-R peptide 230-234 (GDQML)]
